Biological target: Porcine RNA polymerase II, purified (porcine) (UniProt I3LGP4)
Experiment: mass photometry

stoichiometry N: 2
Substance: Porcine RNA polymerase II, purified (from UniProt I3LGP4 127-1300; P60899 1-125; A0A4X1VYD0 1-67; A0A8D0JYF1 1-58) (complex)

From doi:10.64898/2025.12.10.692585
